Laboratory results: patent US20230257454A1 (STAIDSON BEIJING BIOPHARMACEUTICALS, published 2023)

Legend:
human endogenous C5a = target: T1, human endogenous C5a (human, UniProt P01031 678-751, limits assumed); experiment: cell-based or functional assay
T1 sequence: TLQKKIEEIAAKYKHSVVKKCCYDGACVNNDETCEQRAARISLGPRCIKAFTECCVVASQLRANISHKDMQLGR

C5a-K4A = target: T2, C5a-K4A; experiment: ELISA on the coated C5a protein, antibody titrated, OD410
T2 single chain: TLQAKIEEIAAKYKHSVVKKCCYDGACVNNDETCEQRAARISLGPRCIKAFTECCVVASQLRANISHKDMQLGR

C5a-K5A = target: T3, C5a-K5A; experiment: as above
T3 single chain: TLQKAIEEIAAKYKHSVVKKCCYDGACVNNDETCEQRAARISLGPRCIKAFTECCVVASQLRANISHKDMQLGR

C5a-E7A = target: T4, C5a-E7A; experiment: as above
T4 single chain: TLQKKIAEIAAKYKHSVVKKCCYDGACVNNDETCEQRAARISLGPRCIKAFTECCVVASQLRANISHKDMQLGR

C5a-E8A = target: T5, C5a-E8A; experiment: as above
T5 single chain: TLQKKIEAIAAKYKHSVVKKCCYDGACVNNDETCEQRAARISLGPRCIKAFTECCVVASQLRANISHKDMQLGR

C5a-K12A = target: T6, C5a-K12A; experiment: as above
T6 single chain: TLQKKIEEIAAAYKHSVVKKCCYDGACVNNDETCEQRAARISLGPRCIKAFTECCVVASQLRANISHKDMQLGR

C5a-N30A = target: T7, C5a-N30A; experiment: as above
T7 single chain: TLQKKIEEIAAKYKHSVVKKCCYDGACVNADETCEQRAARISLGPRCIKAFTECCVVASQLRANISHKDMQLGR

C5a-T33A = target: T8, C5a-T33A; experiment: as above
T8 single chain: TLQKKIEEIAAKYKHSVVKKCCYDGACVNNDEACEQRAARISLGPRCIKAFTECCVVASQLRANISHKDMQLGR

C5a-E35A = target: T9, C5a-E35A; experiment: as above
T9 single chain: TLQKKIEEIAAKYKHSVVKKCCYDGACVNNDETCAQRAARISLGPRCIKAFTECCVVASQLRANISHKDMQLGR

C5a-Q36A = target: T10, C5a-Q36A; experiment: as above
T10 single chain: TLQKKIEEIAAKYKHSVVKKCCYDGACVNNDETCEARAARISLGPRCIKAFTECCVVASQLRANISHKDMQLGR

C5a-R62A = target: T11, C5a-R62A; experiment: as above
T11 single chain: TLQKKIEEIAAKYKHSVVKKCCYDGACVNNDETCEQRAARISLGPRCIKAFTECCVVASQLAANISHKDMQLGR

[1] = target: T12, human C5a (source not stated) (human, UniProt P01031 678-751); experiment: ELISA on the coated protein, biotinylated Cab42 titrated, SA-HRP, OD410
T12 construct: C5a as used in the ROS release assay (5 nM) and injected in the mouse chemotaxis model
T12 sequence: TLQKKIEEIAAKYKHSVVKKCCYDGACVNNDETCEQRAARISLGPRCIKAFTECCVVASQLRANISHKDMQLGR

[2] = target: T13, native full-length human complement component C5 (human, UniProt P01031 19-673; P01031 678-1676); experiment: ELISA, plate coated with human native C5, full-length antibody titrated, OD410
T13 construct: mature; The native protein has two disulfide-linked chains (alpha and beta) made from one precursor; also called human native C5
T13 sequence (P01031 19-673 limits assumed, one chain of several): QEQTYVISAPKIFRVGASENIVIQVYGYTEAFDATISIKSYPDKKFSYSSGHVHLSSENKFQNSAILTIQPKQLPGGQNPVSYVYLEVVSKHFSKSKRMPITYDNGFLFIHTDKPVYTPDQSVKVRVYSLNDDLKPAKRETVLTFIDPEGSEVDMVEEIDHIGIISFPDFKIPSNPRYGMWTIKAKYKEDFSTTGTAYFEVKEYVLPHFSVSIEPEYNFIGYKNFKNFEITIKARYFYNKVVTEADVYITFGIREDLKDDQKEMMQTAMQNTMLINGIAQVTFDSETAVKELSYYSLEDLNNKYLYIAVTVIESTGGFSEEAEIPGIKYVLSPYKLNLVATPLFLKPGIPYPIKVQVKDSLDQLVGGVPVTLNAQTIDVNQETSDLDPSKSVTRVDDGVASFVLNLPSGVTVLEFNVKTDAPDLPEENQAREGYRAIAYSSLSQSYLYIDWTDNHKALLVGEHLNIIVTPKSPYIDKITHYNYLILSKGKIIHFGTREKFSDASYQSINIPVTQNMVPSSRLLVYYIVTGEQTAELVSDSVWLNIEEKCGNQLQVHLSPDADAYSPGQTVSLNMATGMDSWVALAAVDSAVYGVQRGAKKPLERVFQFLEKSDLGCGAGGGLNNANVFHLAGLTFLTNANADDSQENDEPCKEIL

B1: Cab42-IgG1 (antibody, V domains shown)
VH: EMQLVESGGGLVQPGGSLRLSCAASGFTFSDYYMQWVRQAPGKGPEWVGLIRNKAVGETTQYAASVKGRFTISRDDSKNSVYLQMNSLKTEDTAVYYCVSRAGPPGLSWGQGVLVTVSS
VL: DIVMTQSPLSLPVTPGEPASISCRSSQSLLASDAYNYIDWYLQKPGQSPQLLIYGGSNRASGVPDRFSGSGSGTDFTLKISRVEAEDVGVYFCLQHRALPPTFGQGTKLEIK
notes: Full-length human IgG1; It was biotinylated in the peptide-Fc ELISA
Human endogenous C5a
  eC5a IC50(nM), CD11b up-regulation on human neutrophils in whole blood: 2.05 nM
  eC5a+50*C5 IC50(nM), CD11b up-regulation on human neutrophils in whole blood with 50 times more C5: 31 nM
C5a-K4A
  binding result: binds
C5a-K5A
  binding result: binds
C5a-E7A
  binding result: binds
C5a-E8A
  binding result: binds
C5a-K12A
  binding result: binds
C5a-N30A
  binding result: binds
C5a-T33A
  binding result: binds
C5a-E35A
  binding result: binds
C5a-Q36A
  binding result: binds
C5a-R62A
  binding result: binds
[1]
  EC50 (read off the curve): ~30 ng/w
[2]
  EC50 (read off the curve): ~10 ng/mL
